Results reported in US20260125454A1 (SHANGHAI JUNSHI BIOSCIENCES, published 2026).

Biological target: T1, Biotin-huCGRPaSA (human, not fully specified; biotin (position not given))
T1 construct: exact construct ('aSA') not explained; also called Biotin CGRPaSA; full-length (1-37) CGRP
T1 peptide: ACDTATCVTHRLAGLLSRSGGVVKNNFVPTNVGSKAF
Assay: ELISA, supernatant; relative to chimeric C245
How it was run: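 Plates coated with biotin-CGRPaSA at 1.0 μg/mL (90 min, 37°C) and blocked with 2% BSA. Humanized antibodies and chimeric C245 reference, 2.5-fold serial dilutions from 1000 ng/mL, bound 60 min at 37°C. Detection by HRP anti-human IgG (Fc), TMB 15 min, read at 450/620 nm.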

Binder	Relative binding activity, %
hu85 (antibody, V domains shown, 1F5 HC-5/1F5 LC1-3) VH: QVQLVQSGAEVKKPGASVKVSCKASGYTFIDFNMHWVRQAPGQRLEWMGYIYPYNADVVYNQDFTNRVTLTVDTSSSTAYMELSSLRSEDTAVYYCAREGLGGYWGQGTLVTVSS VL: DIVLTQSPASLAVSPGQRATITCKASQNIDFDGYAYMNWYQQKPGQPPKVLIYSVFNLESGVPARFSGSGSGTDFTLTINPVEADDTANYYCQQSHEVPYTFGQGTKLEIK	76%
hu91 (antibody, V domains shown, 1F5 HC-5/3H10 LC2-2) VH: QVQLVQSGAEVKKPGASVKVSCKASGYTFIDFNMHWVRQAPGQRLEWMGYIYPYNADVVYNQDFTNRVTLTVDTSSSTAYMELSSLRSEDTAVYYCAREGLGGYWGQGTLVTVSS VL: DIQLTQSPSSLSASVGDRVTITCKASQNIDYGGYSYMNWYQQKPGKAPKVLIYSVFNLESGVPSRFSGSGSGTDFTLTISSLQPEDFATYYCQQSNEAPYTFGQGTKLEIK	98%
hu104 (antibody, V domains shown, 2A2 HC-1/3H10 LC2-2) VH: QVQLVQSGAEVKKPGASVKVSCKASGYTFTDYNMHWVRQAPGQRLEWMGYVYPYNGGSAYNQKFKSRVTLTVDTSSSTAYMELSSLRSEDTAVYYCAREGLGGYWGQGTLVTVSS VL: DIQLTQSPSSLSASVGDRVTITCKASQNIDYGGYSYMNWYQQKPGKAPKVLIYSVFNLESGVPSRFSGSGSGTDFTLTISSLQPEDFATYYCQQSNEAPYTFGQGTKLEIK	45%
hu98 (antibody, V domains shown, 2A2 HC-1/1F5 LC1-3) VH: QVQLVQSGAEVKKPGASVKVSCKASGYTFTDYNMHWVRQAPGQRLEWMGYVYPYNGGSAYNQKFKSRVTLTVDTSSSTAYMELSSLRSEDTAVYYCAREGLGGYWGQGTLVTVSS VL: DIVLTQSPASLAVSPGQRATITCKASQNIDFDGYAYMNWYQQKPGQPPKVLIYSVFNLESGVPARFSGSGSGTDFTLTINPVEADDTANYYCQQSHEVPYTFGQGTKLEIK	76%
hu99 (antibody, V domains shown, 2A2 HC-1/1F5 LC1-4) VH: QVQLVQSGAEVKKPGASVKVSCKASGYTFTDYNMHWVRQAPGQRLEWMGYVYPYNGGSAYNQKFKSRVTLTVDTSSSTAYMELSSLRSEDTAVYYCAREGLGGYWGQGTLVTVSS VL: DIVLTQSPDSLAVSLGERATINCKASQNIDFDGYAYMNWYQHKPGQPPKVLIYSVFNLESGVPDRFSGSGSGTDFTLTISSLQAEDVAVYYCQQSHEVPYTFGQGTKLEIK	74%
hu103 (antibody, V domains shown, 2A2 HC-1/3H10 LC2-1) VH: QVQLVQSGAEVKKPGASVKVSCKASGYTFTDYNMHWVRQAPGQRLEWMGYVYPYNGGSAYNQKFKSRVTLTVDTSSSTAYMELSSLRSEDTAVYYCAREGLGGYWGQGTLVTVSS VL: DIVLTQSPDSLAVSLGERATINCKASQNIDYGGYSYMNWYQQKPGQPPKVLIYSVFNLESGVPDRFSGSGSGTDFTLTISSLQAEDVAVYYCQQSNEAPYTFGQGTKLEIK	88%
hu68 (antibody, V domains shown, 1F5 HC-4/1A2 LC2-3) VH: QVQLVQSGSELKKPGASVKVSCKASGYTFTDFNMHWVRQAPGQGLEWMGYIYPYNGDVVYNQNFTNRFVLSVDSSSSTAYLQISSLKAEDTAVYYCAREGLGGYWGQGTLVTVSS VL: EIVLTQSPATLSLSPGERATLSCKASQNIDYDGYAYLNWYQQKPGQAPRVLIYSVFNLESGIPARFSGSGSGTDFTLTISSLEPEDFAVYYCQQSNEFPYTFGQGTKLEIK	104%
hu69 (antibody, V domains shown, 1F5 HC-4/1A2 LC2-4) VH: QVQLVQSGSELKKPGASVKVSCKASGYTFTDFNMHWVRQAPGQGLEWMGYIYPYNGDVVYNQNFTNRFVLSVDSSSSTAYLQISSLKAEDTAVYYCAREGLGGYWGQGTLVTVSS VL: DIQLTQSPSFLSASVGDRVTITCKASQNIDYDGYAYLNWYQQKPGKAPKVLIYSVFNLESGVPSRFSGSGSGTEFTLTISSLQPEDFATYYCQQSNEFPYTFGQGTKLEIK	102%
hu70 (antibody, V domains shown, 1F5 HC-4/1F5 LC1-1) VH: QVQLVQSGSELKKPGASVKVSCKASGYTFTDFNMHWVRQAPGQGLEWMGYIYPYNGDVVYNQNFTNRFVLSVDSSSSTAYLQISSLKAEDTAVYYCAREGLGGYWGQGTLVTVSS VL: EIVLTQSPATLSLSPGERATLSCKASQNIDFDGYAYMNWYQQKPGQAPRVLIYSVFNLESGIPARFSGSGSGTDFTLTISSLEPEDFAVYYCQQSHEVPYTFGQGTKLEIK	116%
hu75 (antibody, V domains shown, 1F5 HC-4/2B8 LC2-2) VH: QVQLVQSGSELKKPGASVKVSCKASGYTFTDFNMHWVRQAPGQGLEWMGYIYPYNGDVVYNQNFTNRFVLSVDSSSSTAYLQISSLKAEDTAVYYCAREGLGGYWGQGTLVTVSS VL: DVQLTQSPSFLSASVGDRVTITCQASQNIDGNTYMNWYQQKPGKAPKVLIYSIFNLESGVPSRFSGSGSGTEFTLTISSLQPEDFATYYCQQSNDYPYTFGQGTKLEIK	84%
hu81 (antibody, V domains shown, 1F5 HC-5/1A2 LC2-3) VH: QVQLVQSGAEVKKPGASVKVSCKASGYTFIDFNMHWVRQAPGQRLEWMGYIYPYNADVVYNQDFTNRVTLTVDTSSSTAYMELSSLRSEDTAVYYCAREGLGGYWGQGTLVTVSS VL: EIVLTQSPATLSLSPGERATLSCKASQNIDYDGYAYLNWYQQKPGQAPRVLIYSVFNLESGIPARFSGSGSGTDFTLTISSLEPEDFAVYYCQQSNEFPYTFGQGTKLEIK	96%
hu94 (antibody, V domains shown, 2A2 HC-1/1A2 LC2-3) VH: QVQLVQSGAEVKKPGASVKVSCKASGYTFTDYNMHWVRQAPGQRLEWMGYVYPYNGGSAYNQKFKSRVTLTVDTSSSTAYMELSSLRSEDTAVYYCAREGLGGYWGQGTLVTVSS VL: EIVLTQSPATLSLSPGERATLSCKASQNIDYDGYAYLNWYQQKPGQAPRVLIYSVFNLESGIPARFSGSGSGTDFTLTISSLEPEDFAVYYCQQSNEFPYTFGQGTKLEIK	48%
hu72 (antibody, V domains shown, 1F5 HC-4/1F5 LC1-3) VH: QVQLVQSGSELKKPGASVKVSCKASGYTFTDFNMHWVRQAPGQGLEWMGYIYPYNGDVVYNQNFTNRFVLSVDSSSSTAYLQISSLKAEDTAVYYCAREGLGGYWGQGTLVTVSS VL: DIVLTQSPASLAVSPGQRATITCKASQNIDFDGYAYMNWYQQKPGQPPKVLIYSVFNLESGVPARFSGSGSGTDFTLTINPVEADDTANYYCQQSHEVPYTFGQGTKLEIK	115%
hu146 (antibody, V domains shown, 3E5 HC-1/1A2 LC2-3) VH: QVQLVQSGAEVKKPGASVKVSCKTSGYTFTDYNMHWVRQAPGQRLEWMGYISPYNGGTAYNQKFKFRVTLTVDTSSSTAYMELSSLRSEDTAVYYCAREGLGGYWGQGTLVTVSS VL: EIVLTQSPATLSLSPGERATLSCKASQNIDYDGYAYLNWYQQKPGQAPRVLIYSVFNLESGIPARFSGSGSGTDFTLTISSLEPEDFAVYYCQQSNEFPYTFGQGTKLEIK	107%
hu73 (antibody, V domains shown, 1F5 HC-4/1F5 LC1-4) VH: QVQLVQSGSELKKPGASVKVSCKASGYTFTDFNMHWVRQAPGQGLEWMGYIYPYNGDVVYNQNFTNRFVLSVDSSSSTAYLQISSLKAEDTAVYYCAREGLGGYWGQGTLVTVSS VL: DIVLTQSPDSLAVSLGERATINCKASQNIDFDGYAYMNWYQHKPGQPPKVLIYSVFNLESGVPDRFSGSGSGTDFTLTISSLQAEDVAVYYCQQSHEVPYTFGQGTKLEIK	106%
hu78 (antibody, V domains shown, 1F5 HC-4/3H10 LC2-2) VH: QVQLVQSGSELKKPGASVKVSCKASGYTFTDFNMHWVRQAPGQGLEWMGYIYPYNGDVVYNQNFTNRFVLSVDSSSSTAYLQISSLKAEDTAVYYCAREGLGGYWGQGTLVTVSS VL: DIQLTQSPSSLSASVGDRVTITCKASQNIDYGGYSYMNWYQQKPGKAPKVLIYSVFNLESGVPSRFSGSGSGTDFTLTISSLQPEDFATYYCQQSNEAPYTFGQGTKLEIK	64%
